Results from the supplement of paper PMC7877785.
± gives the uncertainty stated by the source.

Assay: self-splicing fitness, log relative to wild type (ln ratio); higher = more splicing; Tetrahymena group I intron in knt gene, E. coli kanamycin selection, DiMSum; sequences stand for … in CUCUCU…GGAGGGAAAAGUUAUCAGGCAUGCACCUGGUAGCUAGUCUUUAAACCAAUAGAUUGCAUCGGUUUAAAAGGCAAGACCGUCAAAUUGCGGGAAAGGGGUCAACAGCCGUUCAGUACCAAGUCUCAGGGGAAACUUUGAGAUGGCCUUGCAAAGGGUAUGGUAAUAAGCUGACGGACAUGGUCCUAACCACGCAGCCAAGUCCUAAGUCAACAGAUCUUCUGUUGAUAUGGAUGCAGUUCACAGACUAAAUGUCGGUCGGGGAAGAUGUAUUCUUCUCAUAAGAUAUAGUCGGACCUCUCCUUAAUGGGAGCUAGCGGAUGAAGUGAUGCAACACUGGAGCCGCUGGGAACUAAUUUGUAUGCGAAAGUAUAUUGAUUAGUUUUGGAGUACUCGUGGUCG
In short: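 Colonies from six replicate transformations of E. coli BL21(DE3) were pooled and amplicon-sequenced on an Illumina HiSeq 2500. The library placed an intron with all eight P1ex-region nucleotides randomised inside the knt kanamycin-resistance gene on pET-22b(+), and cells grew overnight at 37°C or 30°C on LB agar with or without 25 μg/mL kanamycin (plus 100 μg/mL carbenicillin, 50 μM IPTG, 0.2% rhamnose). Fitness is the DiMSum error-weighted combination of wild-type-normalised replicate fold changes, kanamycin versus none.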

Row | Sequence | self-splicing fitness (ln) (30 °C) | self-splicing fitness (ln) (37 °C)
1 | GUGGAGCAAUAUUACGGUAG | -1.7 ± 0.16 | -1.41 ± 0.31
2 | GUGGAGCAAUAUUACGUAUA | -2.7 ± 0.2 | 
3 | GUGGAGCAAUAUUACGUCUA | -3.74 ± 0.47 | 
4 | GUGGAGCAAUAUUACGUGCA | -2.14 ± 0.17 | -1.17 ± 0.16
5 | GUGGAGCAAUAUUACGUUAU | -3.23 ± 0.26 | -0.612 ± 0.14
6 | GUGGAGCAAUAUUACGUUGU | -2.93 ± 0.12 | -2.53 ± 0.21
7 | GUGUAGCAAUAUUACGAAAU | -1.47 ± 0.1 | -1.1 ± 0.14
8 | GUGUAGCAAUAUUACGACCA | -1.47 ± 0.28 | -0.121 ± 0.43
9 | GUGUAGCAAUAUUACGACGU | 0.117 ± 0.095 | 0.9 ± 0.12
10 | GUGUAGCAAUAUUACGAGAG |  | -1.52 ± 0.47
11 | GUGUAGCAAUAUUACGCACG | -3.57 ± 0.27 | -2.25 ± 0.22
12 | GUGUAGCAAUAUUACGCAUC |  | -0.977 ± 0.26
13 | GUGUAGCAAUAUUACGCGAG | -3.67 ± 0.32 | -0.997 ± 0.17
14 | GUGUAGCAAUAUUACGCGGG | -3.73 ± 0.2 | -2.75 ± 0.2
15 | GUGUAGCAAUAUUACGGAAG | -1.96 ± 0.19 | -0.206 ± 0.19
16 | GUGUAGCAAUAUUACGGCCA | 0.628 ± 0.35 | -0.349 ± 0.44
17 | GUGUAGCAAUAUUACGGCGG | -2.81 ± 0.23 | -1.6 ± 0.19
18 | GUGUAGCAAUAUUACGGGUC | -2.47 ± 0.2 | -2.49 ± 0.28
19 | GUGUAGCAAUAUUACGGGUU | -2.77 ± 0.21 | -1.22 ± 0.17
20 | GUGUAGCAAUAUUACGGUAG |  | -1.58 ± 0.23
21 | GUGUAGCAAUAUUACGGUUA | -0.588 ± 0.14 | -0.936 ± 0.17
22 | GUGUAGCAAUAUUACGGUUG | -2.88 ± 0.14 | -2.61 ± 0.16
23 | GUGUAGCAAUAUUACGUAUU | -1.25 ± 0.12 | -2.82 ± 0.22
24 | GUGUAGCAAUAUUACGUGAU | -1.59 ± 0.17 | 0.0886 ± 0.19
25 | GUGUAGCAAUAUUACGUUUG | -2.54 ± 0.27 | -1.44 ± 0.28

Row | Sequence | self-splicing fitness (ln) (30 °C) | self-splicing fitness (ln) (37 °C)
26 | GUUAAGCAAUAUUACGAAAG | -1.91 ± 0.14 | -1.5 ± 0.22
27 | GUUAAGCAAUAUUACGAACG | -2.01 ± 0.28 | -1.16 ± 0.31
28 | GUUAAGCAAUAUUACGAACU | -2.35 ± 0.2 | -0.527 ± 0.2
29 | GUUAAGCAAUAUUACGAAUU | -1.72 ± 0.21 | -1.4 ± 0.24
30 | GUUAAGCAAUAUUACGAGUU | -1.36 ± 0.11 | -0.688 ± 0.14
31 | GUUAAGCAAUAUUACGAUAC | -1.34 ± 0.21 | -0.951 ± 0.28
32 | GUUAAGCAAUAUUACGAUGA | -1.33 ± 0.17 | 0.18 ± 0.11
33 | GUUAAGCAAUAUUACGAUGC | -0.546 ± 0.18 | -0.241 ± 0.18
34 | GUUAAGCAAUAUUACGCGCG | -0.983 ± 0.09 | 0.0623 ± 0.14
35 | GUUAAGCAAUAUUACGCUCG | -0.539 ± 0.13 | 0.0474 ± 0.16
36 | GUUAAGCAAUAUUACGGCGU | -0.0268 ± 0.076 | -0.00868 ± 0.094
37 | GUUAAGCAAUAUUACGGGGA | -3.04 ± 0.37 | -2.15 ± 0.47
38 | GUUAAGCAAUAUUACGUCCG | -1.77 ± 0.17 | -0.533 ± 0.23
39 | GUUAAGCAAUAUUACGUUUU | -3.11 ± 0.15 | -1.7 ± 0.16
40 | GUUCAGCAAUAUUACGAACA | -2.43 ± 0.26 | -1.45 ± 0.22
41 | GUUCAGCAAUAUUACGAAGC | -0.705 ± 0.18 | -1.29 ± 0.2
42 | GUUCAGCAAUAUUACGAAUC | -3.73 ± 0.24 | -2.29 ± 0.33
43 | GUUCAGCAAUAUUACGACAA | -1.06 ± 0.18 | -0.319 ± 0.18
44 | GUUCAGCAAUAUUACGACAG | -3.33 ± 0.35 | -1.76 ± 0.42
45 | GUUCAGCAAUAUUACGACCG | -3.83 ± 0.18 | -1.93 ± 0.23
46 | GUUCAGCAAUAUUACGACGG | -4.42 ± 0.24 | -3.24 ± 0.37
47 | GUUCAGCAAUAUUACGAGAA | -1.81 ± 0.49 | -2.14 ± 0.31
48 | GUUCAGCAAUAUUACGAGGU | -2.25 ± 0.12 | -0.472 ± 0.13
49 | GUUCAGCAAUAUUACGAGUG | -1.59 ± 0.18 | -0.332 ± 0.14
50 | GUUCAGCAAUAUUACGAUAU | -0.361 ± 0.086 | 0.524 ± 0.097

Row | Sequence | self-splicing fitness (ln) (30 °C) | self-splicing fitness (ln) (37 °C)
51 | GUUCAGCAAUAUUACGCAAU | -1.08 ± 0.16 | -0.106 ± 0.19
52 | GUUCAGCAAUAUUACGCACC | -1.33 ± 0.13 | -0.136 ± 0.21
53 | GUUCAGCAAUAUUACGCUCC | -0.282 ± 0.15 | -0.544 ± 0.23
54 | GUUCAGCAAUAUUACGCUUG | -1.54 ± 0.081 | -0.171 ± 0.089
55 | GUUCAGCAAUAUUACGGAAU | -2.45 ± 0.19 | -2.46 ± 0.27
56 | GUUCAGCAAUAUUACGGACA | -1.59 ± 0.18 | -1.02 ± 0.16
57 | GUUCAGCAAUAUUACGGCUU | -0.546 ± 0.086 | 0.571 ± 0.12
58 | GUUCAGCAAUAUUACGGGAG | -0.317 ± 0.077 | -0.683 ± 0.095
59 | GUUCAGCAAUAUUACGGGCU |  | -1.56 ± 0.28
60 | GUUCAGCAAUAUUACGGGGU | -3.36 ± 0.17 | -1.73 ± 0.16
61 | GUUCAGCAAUAUUACGGGUA | -2.23 ± 0.12 | -0.474 ± 0.097
62 | GUUCAGCAAUAUUACGGGUG | -1.49 ± 0.09 | -0.763 ± 0.089
63 | GUUCAGCAAUAUUACGGUCU | -0.136 ± 0.047 | 0.327 ± 0.063
64 | GUUCAGCAAUAUUACGUAGA | -0.546 ± 0.1 | -0.394 ± 0.1
65 | GUUCAGCAAUAUUACGUUAU | -0.292 ± 0.077 | -0.207 ± 0.099
66 | GUUCAGCAAUAUUACGUUCG | -0.684 ± 0.067 | 0.137 ± 0.1
67 | GUUGAGCAAUAUUACGAAGG | -3.35 ± 0.41 | -2.68 ± 0.4
68 | GUUGAGCAAUAUUACGAGGA | -2.48 ± 0.45 | 
69 | GUUGAGCAAUAUUACGAUGA |  | -2.27 ± 0.42
70 | GUUGAGCAAUAUUACGCACG | -3.13 ± 0.43 | 
71 | GUUGAGCAAUAUUACGCCGU | -2.98 ± 0.23 | -0.768 ± 0.16
72 | GUUGAGCAAUAUUACGCGAA | -3.43 ± 0.46 | -1.9 ± 0.43
73 | GUUGAGCAAUAUUACGCGUC | -1.59 ± 0.27 | -0.951 ± 0.34
74 | GUUGAGCAAUAUUACGCUAC | -1.28 ± 0.49 | 
75 | GUUGAGCAAUAUUACGCUAU | -2.06 ± 0.35 | -2.66 ± 0.46

Row | Sequence | self-splicing fitness (ln) (30 °C) | self-splicing fitness (ln) (37 °C)
76 | GUUGAGCAAUAUUACGCUUG | -2.79 ± 0.22 | -2.15 ± 0.27
77 | GUUGAGCAAUAUUACGGCCU | -2.03 ± 0.18 | -0.897 ± 0.2
78 | GUUGAGCAAUAUUACGGGCG | -2.38 ± 0.18 | -1.58 ± 0.25
79 | GUUGAGCAAUAUUACGGUAA | -2.51 ± 0.27 | -2.49 ± 0.35
80 | GUUGAGCAAUAUUACGGUAC | -3.45 ± 0.34 | -1.79 ± 0.38
81 | GUUGAGCAAUAUUACGUACC | -1.75 ± 0.36 | 
82 | GUUGAGCAAUAUUACGUCGC | -2.1 ± 0.35 | -1.17 ± 0.29
83 | GUUGAGCAAUAUUACGUGGC | -3.09 ± 0.25 | -2.17 ± 0.28
84 | GUUUAGCAAUAUUACGAGUG | -3.74 ± 0.17 | -0.634 ± 0.11
85 | GUUUAGCAAUAUUACGAGUU | -4.25 ± 0.29 | -2.3 ± 0.14
86 | GUUUAGCAAUAUUACGAUGU | -1.16 ± 0.11 | -0.261 ± 0.14
87 | GUUUAGCAAUAUUACGAUUU | -0.709 ± 0.068 | 0.111 ± 0.096
88 | GUUUAGCAAUAUUACGCAUU | -1.53 ± 0.11 | -0.487 ± 0.12
89 | GUUUAGCAAUAUUACGCCGU | -2.03 ± 0.13 | -0.93 ± 0.14
90 | GUUUAGCAAUAUUACGCUGA | -3.66 ± 0.33 | -1.6 ± 0.23
91 | GUUUAGCAAUAUUACGCUUC |  | -1.36 ± 0.43
92 | GUUUAGCAAUAUUACGCUUG | -1.18 ± 0.099 | 0.632 ± 0.15
93 | GUUUAGCAAUAUUACGGAGU | -2.3 ± 0.13 | -1.63 ± 0.12
94 | GUUUAGCAAUAUUACGGCGA | -0.198 ± 0.23 | -0.0729 ± 0.19
95 | GUUUAGCAAUAUUACGUCAA | -2.3 ± 0.18 | -0.778 ± 0.16
96 | GUUUAGCAAUAUUACGUCAU | -0.998 ± 0.069 | -0.817 ± 0.099
97 | GUUUAGCAAUAUUACGUCCG | -2.86 ± 0.2 | -1.89 ± 0.29
98 | GUUUAGCAAUAUUACGUCGA | -1.43 ± 0.28 | -0.62 ± 0.28
99 | GUUUAGCAAUAUUACGUCUC | -0.593 ± 0.19 | 0.43 ± 0.24
